Assay [1] has as its target His6-flag-FKBP protein with FK506 (human). As to the kind of experiment: phage display affinity enrichment: 1 µM His6-flag-FKBP plus FK506, Ni-NTA agarose capture, acid elution.
Assay [2] deals with His6-flag-FKBP protein alone (ethanol, no drug) (human). As to the kind of experiment: phage display affinity enrichment: 1 µM His6-flag-FKBP with ethanol alone, Ni-NTA agarose capture, acid elution.
For assay [3], the target named is His6-flag-FKBP protein with rapamycin (human). As to the kind of experiment: phage display affinity enrichment: FRAP phagemids mixed with pBC control phagemids, 1 µM His6-flag-FKBP plus rapamycin, Ni-NTA agarose capture, acid elution.
For assay [4], the target named is 1FRB-p65(361-550) (human) (UniProt P42345). Briefly: cell-based or functional assay.

Chain of His6-flag-FKBP protein with rapamycin (human) (chain, as listed by the source limits assumed): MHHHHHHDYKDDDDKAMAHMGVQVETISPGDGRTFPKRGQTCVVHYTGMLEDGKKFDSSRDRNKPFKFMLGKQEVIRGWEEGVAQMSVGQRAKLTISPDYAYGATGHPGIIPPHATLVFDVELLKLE
Chain of His6-flag-FKBP protein alone (ethanol, no drug) (human) (chain, as listed by the source limits assumed): as above
Chain of His6-flag-FKBP protein with FK506 (human) (chain, as listed by the source limits assumed): as above

Consider “phagemids displaying FRAP (amino acids 2015-2114) (from UniProt P42345 2015-2114; P03661 216-424)”, for which the results for the fold enrichment of FRAP phage compared to the starting mixture (carb/chlor cfu ratio) in assay [1], in assay [2] and in assay [3] were 2.4 fold, 1.5 fold and 271 fold, respectively.
On to “ZFHD1-3FKBP (from UniProt P62942 1-107; P62942 1-107; P62942 1-107)”, for which, in assay [4], the SEAP activity of the stable clone at 1100 nM rapamycin (arbitrary fluorescence units) is above 90000; the SEAP activity of the stable clone, no rapamycin (mock transfected cells 47 units) (arbitrary fluorescence units) came out at 54; the SEAP secretion, enhancement with rapamycin over background is above 1000 fold; the SEAP secretion, transiently transfected HT1080 cells: lowest rapamycin concentration with detectable signal is 0.5 nM. This substance also returned an SEAP secretion, transiently transfected HT1080 cells: rapamycin concentration of the peak in assay [4] of 5 nM.

The values are drawn from US20030206891A1, “Rapamycin-based biological regulation” (ARIAD Gene Therapeutics, Inc., priority 1995, published 2003).
